Measured values published in patent publication US20250270343A1 (Alector, published 2025).
Substitutions are numbered along the chain they refer to. Each block holds one binder with its values, some of them ahead of it.

Legend:
[1] = target: T1, soluble mouse GPNMB-Fc polypeptide (Fc of human IgG1 or mouse IgG2A, not specified for the assay) (mouse, UniProt Q99P91 23-502); test: FACS, Fab2 blocking moGPNMB-Fc binding to SVEC4-10 cells
T1 construct: extracellular domain; also called moGPNMB-Fc; mGPNMB; not shown: Fc region of human IgG1 or mouse IgG2A; in the Fab2 assay detected with anti-human IgG1 secondary antibody
T1 sequence (looked up): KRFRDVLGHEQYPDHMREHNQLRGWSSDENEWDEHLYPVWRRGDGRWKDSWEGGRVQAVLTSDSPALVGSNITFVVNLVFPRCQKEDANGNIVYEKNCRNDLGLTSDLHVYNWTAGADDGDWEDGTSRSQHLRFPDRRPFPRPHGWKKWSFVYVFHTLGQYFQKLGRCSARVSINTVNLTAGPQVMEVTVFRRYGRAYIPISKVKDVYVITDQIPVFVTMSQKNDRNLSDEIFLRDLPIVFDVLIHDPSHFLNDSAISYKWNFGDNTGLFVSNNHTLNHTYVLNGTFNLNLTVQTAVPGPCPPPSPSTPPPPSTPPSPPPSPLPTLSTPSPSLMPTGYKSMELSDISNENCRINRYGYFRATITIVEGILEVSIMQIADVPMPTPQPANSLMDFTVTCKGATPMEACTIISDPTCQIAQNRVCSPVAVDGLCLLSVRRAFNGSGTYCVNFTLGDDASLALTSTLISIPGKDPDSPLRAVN
Method: Purified recombinant Fab2 fragments of select anti-GPNMB antibodies of the present disclosure were produced through transient transfection and purified. Briefly, 2 ug/mL soluble mouse or human GPNMB-Fc diluted in binding buffer was pre-complexed with increasing concentrations of anti-GPNMB Fab2 fragments in 96-well plates. Subsequently, 100,000 SVEC4-10 cells were added per well and incubated on ice for 30 minutes. Soluble moGPNMB-Fc or huGPNMB-Fc bound to cell surface was detected with fluorescent anti-human IgG1 secondary antibody and measured on FACSCanto. IC50 and EC50 values based on changes in MFI values were calculated for each antibody.

[2] = target: T2, full-length untagged human GPNMB expressed on cells (human, UniProt Q14956 23-572); test: cell-based or functional assay
T2 sequence: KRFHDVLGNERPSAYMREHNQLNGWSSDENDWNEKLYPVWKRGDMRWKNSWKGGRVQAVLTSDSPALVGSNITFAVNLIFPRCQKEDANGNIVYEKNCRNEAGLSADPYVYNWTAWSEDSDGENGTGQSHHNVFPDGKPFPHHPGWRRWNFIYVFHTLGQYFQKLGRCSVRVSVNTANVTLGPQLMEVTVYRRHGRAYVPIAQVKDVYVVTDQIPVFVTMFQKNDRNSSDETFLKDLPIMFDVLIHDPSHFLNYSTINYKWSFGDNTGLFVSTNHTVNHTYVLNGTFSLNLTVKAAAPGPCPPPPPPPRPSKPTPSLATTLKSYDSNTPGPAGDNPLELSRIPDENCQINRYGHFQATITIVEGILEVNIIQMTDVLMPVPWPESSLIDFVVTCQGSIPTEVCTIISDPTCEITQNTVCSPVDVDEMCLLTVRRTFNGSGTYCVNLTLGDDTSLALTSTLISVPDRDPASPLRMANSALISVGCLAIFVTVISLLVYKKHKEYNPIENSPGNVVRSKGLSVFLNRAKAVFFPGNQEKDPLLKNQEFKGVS

[3] = target: T2, full-length untagged human GPNMB …; test: FACS titration, FS293-huGPNMB+ cells
Method: Affinity matured anti-GPNMB antibodies of the present disclosure were examined to determine their ability to bind human and mouse GPNMB expressed on FS293-huGPNMB+ or B16F10 cells, respectively. Cell-based affinity measurements were performed to ascertain the apparent affinities of anti-GPNMB antibodies to cell-surface expressed GPNMB. Serial dilutions of anti-GPNMB antibodies of the present disclosure were added to 100,000 FS293-huGPNMB+ or B16F10 cells and allowed to achieve binding equilibrium at 4° C. After addition of fluorescently labeled secondary antibody and brief washing steps, MFI values as a function of titrated antibody concentration were recorded via FACS analysis. Equilibrium binding curves were fit using nonlinear regression analysis with Graphpad Prism 6 software.

[4] = target: T3, soluble human GPNMB (recombinant extracellular domain) (human, UniProt Q14956 23-498); test: SPR Biacore, IgG captured
T3 construct: also called huGPNMB; recombinant human GPNMB extracellular domain; not shown: C-terminal polyhistidine or Avi-His tag
T3 sequence: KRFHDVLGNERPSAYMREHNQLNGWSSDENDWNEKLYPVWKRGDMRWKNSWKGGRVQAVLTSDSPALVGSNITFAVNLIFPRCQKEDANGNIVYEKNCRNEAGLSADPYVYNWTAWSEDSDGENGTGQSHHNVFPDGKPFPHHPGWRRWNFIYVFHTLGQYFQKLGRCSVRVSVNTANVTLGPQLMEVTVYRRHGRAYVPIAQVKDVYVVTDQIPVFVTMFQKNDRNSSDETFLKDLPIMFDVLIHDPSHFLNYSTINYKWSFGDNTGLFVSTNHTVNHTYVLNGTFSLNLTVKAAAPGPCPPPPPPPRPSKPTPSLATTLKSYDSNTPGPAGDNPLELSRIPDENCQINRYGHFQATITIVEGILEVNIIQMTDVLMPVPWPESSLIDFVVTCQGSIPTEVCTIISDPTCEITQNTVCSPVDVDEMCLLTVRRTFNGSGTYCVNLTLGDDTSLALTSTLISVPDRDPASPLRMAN
Method: (§1) Binding kinetics of the humanized and affinity matured anti-GPNMB antibodies described above were evaluated using the Biacore T200 (Cytiva). Briefly, IgGs were diluted to 10 μg/mL and captured using a Protein A/G (ThermioFisher, #21186) surface on a CM5 chip that was prepared by amine coupling according to the instrument manufacturer's recommendations. The captured antibodies were tested for their ability to bind human, cynomolgus monkey, and mouse GPNMB recombinant proteins as follows.
(§2) Human, cynomolgus, and mouse GPNMB analytes were diluted in running buffer (HBS-EP+, Teknova, #8022, with 0.5 mg/ml BSA, MP Biomedicals LLC, #820451), to a concentration of 300 nM, then diluted 3-fold serially to 100 nM, 33 nM, and 11 nM. Each sample was injected for 2 minutes to allow association, followed by dissociation in buffer alone for 10 minutes. Each sample injection was followed by the regeneration of the chip with three 30-second injections of 10 mM glycine, pH 1.7. Fresh antibody was captured at the beginning of each cycle.
(§3) Data were analyzed using Biacore evaluation software to generate kinetic constants. The equilibrium dissociation constants (KD) were calculated from the fitted association and dissociation rate constants (k-on and k-off) for each of the anti-GPNMB antibodies.

[5] = target: T4, soluble cynomolgus GPNMB (recombinant extracellular domain) (cynomolgus, UniProt Q14956 23-499 (human entry), limits assumed); test: SPR Biacore, IgG captured
T4 chain: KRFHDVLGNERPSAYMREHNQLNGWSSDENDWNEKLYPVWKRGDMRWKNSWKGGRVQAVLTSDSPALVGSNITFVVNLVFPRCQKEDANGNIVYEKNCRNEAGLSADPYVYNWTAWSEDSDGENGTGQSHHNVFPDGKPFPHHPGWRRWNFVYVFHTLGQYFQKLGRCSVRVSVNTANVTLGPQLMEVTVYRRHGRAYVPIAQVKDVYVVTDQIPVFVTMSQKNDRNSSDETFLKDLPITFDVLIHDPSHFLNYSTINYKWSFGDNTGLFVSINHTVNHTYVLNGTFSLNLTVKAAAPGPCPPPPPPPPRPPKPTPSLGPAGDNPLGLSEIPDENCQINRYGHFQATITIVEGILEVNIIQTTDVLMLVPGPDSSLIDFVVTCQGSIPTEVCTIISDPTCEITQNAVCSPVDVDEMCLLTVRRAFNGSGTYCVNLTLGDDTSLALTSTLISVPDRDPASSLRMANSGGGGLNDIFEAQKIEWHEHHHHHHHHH
Method: as §1, §2, §3

[6] = target: T5, soluble mouse GPNMB (recombinant extracellular domain) (mouse, UniProt Q99P91 23-502); test: SPR Biacore T200, IgG captured on Protein A/G; nb = no binding observed
T5 construct: also called moGPNMB; not shown: C-terminal polyhistidine or Avi-His tag
T5 sequence: T1 sequence (looked up)

[7] = target: T2, full-length untagged human GPNMB …; test: cell-based or functional assay; remark: listed apart in the source
[8] = target: T2, full-length untagged human GPNMB …; test: cell-based or functional assay; remark: listed apart in the source

IC50 [1]: 3.19 nM
B2: recombinant Fab2 fragment of anti-GPNMB antibody GPN-52 (other)
VH: DVQLQESGPGLVKPSQTVFLTCTVTGISITTGNYRWSWIRQFPGNKLEWIGYIYYSGTITYNPSLTSRITITRDTPKNEFFLEMNSLTAEDTATYYCARDLTHWYFDVWGTGTTVTVSS
VL: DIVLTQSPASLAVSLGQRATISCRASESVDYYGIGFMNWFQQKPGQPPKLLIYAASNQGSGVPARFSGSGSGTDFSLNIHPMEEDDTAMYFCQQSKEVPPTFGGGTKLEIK
notes: also called GPN-52 Fab2

IC50 [1]: 2.33 nM
B3: recombinant Fab2 fragment of anti-GPNMB antibody GPN-48 (other)
VH: QVQLQQSGPELVKPGASVKLSCRASGYGFSSFWMNWVKQRPGKGLEWIGRIYPGKGDTLYNGKFKDKATLTADESSSTAYMQLSSLTSEDSAVYFCARSIYYYDYWYFDVWDTGTTVTVSS
VL: DIVMTQSHKFMSTSVGDRVNITCKASQDVNSAIAWYQQKPGQSPKLLIYSASYRFIGVPDRFTGSGSGTGFTFTISSVQAEDLAVYYCQQHYTTPLTFGAGTKLELK
notes: also called GPN-48 Fab2

More lines, now with the values behind:

B1: recombinant Fab2 fragment of anti-GPNMB antibody GPN-43 (other)
VH: EVQLQQSGPELVKPGASVKISCKASGYTFTDYYMNWVRQSHGKSLEWIGDINPYHGGSTYNQKIKVKATLTVDKSSSTAYMELRSLTSEDSAVYYCARNWPYFDYWGQGTTLTVSS
VL: DIQMTQSPASLSASVGETVTITCRASENIYSFLVWYQQKQGKSPQLLVYNAKTLAEGVPSRFSGSGSGTQFSLKISSLQPEDFGSYYCQHHFGTPPYTFGGGTKLEIK
notes: also called GPN-43 Fab2
IC50 [1]: 9.42 nM

B4: anti-GPNMB antibody GPN-97 (antibody, V domains shown)
VH: QVQLVQSGAEVKKPGASVKVSCKASGYTFTSYWMHWVRQAPGQGLEWMGEINPYDQRTNYAQKFQGRVTMTVDKSTSTVYMELSSLRSEDTAVYYCARSTGNYAWFAYWGQGTLVTVSS
VL: DIVMTQSPDSLAVSLGERATINCKTSQDVSPSLAWYQQKPGQPPKLLIYSGSYRYTGVPDRFSGSGSGTDFTLTISSLQAEDVAVYYCQQHYSIPLTFGGGTKVEIK
Inflammasome: Fold Decrease IL-1β (max response at 0.3 µg/ml) [2]: 0.476 fold
EC50 [3]: 0.546 nM
Kd [4]: 6.7 nM
koff [4]: 0.00054 s⁻¹
kon [4]: 81000 M⁻¹ s⁻¹
Kd [5]: 8.2 nM
koff [5]: 0.00065 s⁻¹
kon [5]: 79000 M⁻¹ s⁻¹
binding result [6]: no binding (tested: 300 nM highest analyte concentration)
EC50 GCase [7]: 0.22 nM
Fold Increase GCase (max response at 1 µg/ml) [7]: 1.36 fold
EC50 PDL1 [8]: 0.75 nM
Fold Increase CD40 (max response at 1 µg/ml) [8]: 1.73 fold
Fold Increase PDL1 (max response at 1 µg/ml) [8]: 2.05 fold

B5: anti-GPNMB antibody GPN-98 (antibody, V domains shown)
VH: B4 VH
VL: B4 VL with T25A, G51A
Inflammasome: Fold Decrease IL-1β (max response at 0.3 µg/ml) [2]: 0.664 fold
EC50 [3]: 0.407 nM
Kd [4]: 11.9 nM
koff [4]: 0.00091 s⁻¹
kon [4]: 76000 M⁻¹ s⁻¹
Kd [5]: 14.6 nM
koff [5]: 0.0011 s⁻¹
kon [5]: 74000 M⁻¹ s⁻¹
binding result [6]: no binding (tested: 300 nM highest analyte concentration)
EC50 GCase [7]: 0.25 nM
Fold Increase GCase (max response at 1 µg/ml) [7]: 1.39 fold
EC50 PDL1 [8]: 1.24 nM
Fold Increase CD40 (max response at 1 µg/ml) [8]: 1.71 fold
Fold Increase PDL1 (max response at 1 µg/ml) [8]: 1.97 fold
